This note sets out measurements from IntAct's records for PubMed 23932592.

First the molecules themselves.
B1: Syntaxin-6 (Homo sapiens), O43752 (parent)
chain: MSMEDPFFVVKGEVQKAVNTAQGLFQRWTELLQDPSTATREEIDWTTNELRNNLRSIEWDLEDLDETISIVEANPRKFNLDATELSIRKAFITSTRQVVRDMKDQMSTSSVQALAERKNRQALLGDSGSQNWSTGTTDKYGRLDRELQRANSHFIEEQQAQQQLIVEQQDEQLELVSGSIGVLKNMSQRIGGELEEQAVMLEDFSHELESTQSRLDNVMKKLAKVSHMTSDRRQWCAIAILFAVLLVVLILFLVL
partner: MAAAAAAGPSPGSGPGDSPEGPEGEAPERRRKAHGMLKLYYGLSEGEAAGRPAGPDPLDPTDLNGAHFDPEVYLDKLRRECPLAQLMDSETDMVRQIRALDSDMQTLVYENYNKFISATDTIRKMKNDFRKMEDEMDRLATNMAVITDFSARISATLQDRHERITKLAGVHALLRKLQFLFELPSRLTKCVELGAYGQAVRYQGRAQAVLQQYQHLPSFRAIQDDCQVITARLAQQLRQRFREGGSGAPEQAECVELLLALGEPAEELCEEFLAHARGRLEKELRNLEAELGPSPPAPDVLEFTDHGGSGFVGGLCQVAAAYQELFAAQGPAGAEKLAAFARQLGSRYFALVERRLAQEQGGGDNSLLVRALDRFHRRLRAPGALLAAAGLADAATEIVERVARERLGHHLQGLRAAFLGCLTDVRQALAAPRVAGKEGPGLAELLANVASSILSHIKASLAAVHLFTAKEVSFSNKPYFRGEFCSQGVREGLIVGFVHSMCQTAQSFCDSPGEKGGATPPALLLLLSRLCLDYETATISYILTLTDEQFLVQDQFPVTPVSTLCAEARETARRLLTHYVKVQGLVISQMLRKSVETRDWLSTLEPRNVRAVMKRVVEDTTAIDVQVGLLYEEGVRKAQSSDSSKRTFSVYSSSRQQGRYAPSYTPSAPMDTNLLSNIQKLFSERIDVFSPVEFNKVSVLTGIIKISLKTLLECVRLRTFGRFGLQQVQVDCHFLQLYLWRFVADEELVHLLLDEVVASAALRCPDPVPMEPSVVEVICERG
B2: Vacuolar protein sorting-associated protein 51 homolog (Homo sapiens), Q9UID3-1 (parent)
chain: B1 partner
partner: B1 chain
B3: Vacuolar protein sorting-associated protein 51 homolog (Homo sapiens), Q9UID3-1 (parent)
chain: B1 partner
partner: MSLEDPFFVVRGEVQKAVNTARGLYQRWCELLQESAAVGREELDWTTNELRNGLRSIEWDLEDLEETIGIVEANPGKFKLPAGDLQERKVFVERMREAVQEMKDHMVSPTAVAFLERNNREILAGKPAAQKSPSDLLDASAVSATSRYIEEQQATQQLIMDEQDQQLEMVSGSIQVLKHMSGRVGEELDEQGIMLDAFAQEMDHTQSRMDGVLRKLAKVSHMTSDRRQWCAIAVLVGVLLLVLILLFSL
B4: Syntaxin-10 (Homo sapiens), O60499-1 (parent)
chain: B3 partner
partner: B1 partner

In one test the parent is B1. The following applies: with VPS51, Q9UID3-1.
With MSMEDPLFVVKGEVQKAVNTAQGLFQRWTELLQDPSTATREEIDWTTNELRNNLRSIEWDLEDLDETISIVEANPRKFNLDATELSIRKAFITSTRQVVRDMKDQMSTSSVQALAERKNRQALLGDSGSQNWSTGTTDKYGRLDRELQRANSHFIEEQQAQQQLIVEQQDEQLELVSGSIGVLKNMSQRIGGELEEQAVMLEDFSHELESTQSRLDNVMKKLAKVSHMTSDRRQWCAIAILFAVLLVVLILFLVL [F7L], the “effect of a mutation on the interaction” value is listed as “disrupting interaction strength”. As for MSMEDAFFVVKGEVQKAVNTAQGLFQRWTELLQDPSTATREEIDWTTNELRNNLRSIEWDLEDLDETISIVEANPRKFNLDATELSIRKAFITSTRQVVRDMKDQMSTSSVQALAERKNRQALLGDSGSQNWSTGTTDKYGRLDRELQRANSHFIEEQQAQQQLIVEQQDEQLELVSGSIGVLKNMSQRIGGELEEQAVMLEDFSHELESTQSRLDNVMKKLAKVSHMTSDRRQWCAIAILFAVLLVVLILFLVL [P6A], the “effect of a mutation on the interaction” value is reported as “disrupting interaction strength”. Turning to MSMELPFFVVKGEVQKAVNTAQGLFQRWTELLQDPSTATREEIDWTTNELRNNLRSIEWDLEDLDETISIVEANPRKFNLDATELSIRKAFITSTRQVVRDMKDQMSTSSVQALAERKNRQALLGDSGSQNWSTGTTDKYGRLDRELQRANSHFIEEQQAQQQLIVEQQDEQLELVSGSIGVLKNMSQRIGGELEEQAVMLEDFSHELESTQSRLDNVMKKLAKVSHMTSDRRQWCAIAILFAVLLVVLILFLVL [D5L], the “effect of a mutation on the interaction” value is “disrupting interaction strength”. Regarding MSMEDPFFVVKGEVQKAVNTAQGLFQRWTELLQDPSTATREEIDWTTNELRNNLRSIEWDLEDLDETISIVEANPRKFNLDATELSIMKAFITSTRQVVRDMKDQMSTSSVQALAERKNRQALLGDSGSQNWSTGTTDKYGRLDRELQRANSHFIEEQQAQQQLIVEQQDEQLELVSGSIGVLKNMSQRIGGELEEQAVMLEDFSHELESTQSRLDNVMKKLAKVSHMTSDRRQWCAIAILFAVLLVVLILFLVL [R88M], the “effect of a mutation on the interaction” value is “disrupting interaction strength”.

In a further test the parent is B2. The settings on record: with stx6_human STX6, O43752.
Take L37A: the “effect of a mutation on the interaction” value is on record as “disrupting interaction strength”. Consider Y40A, for which the “effect of a mutation on the interaction” value is “disrupting interaction strength”. With Y41A, the “effect of a mutation on the interaction” value is listed as “disrupting interaction strength”.

Variants of B2 are the subject of another test. The following applies: with stx6_human STX6, O43752. The source holds these as a separate data set.
Turning to Y40A;Y41A, the “effect of a mutation on the interaction” value is on record as “disrupting interaction strength”.

Variants of B3 are the subject of the next test. The following applies: with STX10, O60499-1.
In the case of Y41A, the “effect of a mutation on the interaction” value is listed as “disrupting interaction strength”. On to Y40A, for which the “effect of a mutation on the interaction” value was “disrupting interaction strength”. Take L37A: the “effect of a mutation on the interaction” value was “disrupting interaction strength”.

A further test covers variants of B3. The following applies: with STX10, O60499-1. The source holds these as a separate data set.
Consider Y40A;Y41A, for which the “effect of a mutation on the interaction” value was “disrupting interaction strength”.

The variants in another test derive from B4. The following applies: with VPS51, Q9UID3-1.
For the variant MSLEDPLFVVRGEVQKAVNTARGLYQRWCELLQESAAVGREELDWTTNELRNGLRSIEWDLEDLEETIGIVEANPGKFKLPAGDLQERKVFVERMREAVQEMKDHMVSPTAVAFLERNNREILAGKPAAQKSPSDLLDASAVSATSRYIEEQQATQQLIMDEQDQQLEMVSGSIQVLKHMSGRVGEELDEQGIMLDAFAQEMDHTQSRMDGVLRKLAKVSHMTSDRRQWCAIAVLVGVLLLVLILLFSL [F7L], the “effect of a mutation on the interaction” value was “disrupting interaction strength”. On to MSLELPFFVVRGEVQKAVNTARGLYQRWCELLQESAAVGREELDWTTNELRNGLRSIEWDLEDLEETIGIVEANPGKFKLPAGDLQERKVFVERMREAVQEMKDHMVSPTAVAFLERNNREILAGKPAAQKSPSDLLDASAVSATSRYIEEQQATQQLIMDEQDQQLEMVSGSIQVLKHMSGRVGEELDEQGIMLDAFAQEMDHTQSRMDGVLRKLAKVSHMTSDRRQWCAIAVLVGVLLLVLILLFSL [D5L], for which the “effect of a mutation on the interaction” value is “disrupting interaction strength”. For MSLEDAFFVVRGEVQKAVNTARGLYQRWCELLQESAAVGREELDWTTNELRNGLRSIEWDLEDLEETIGIVEANPGKFKLPAGDLQERKVFVERMREAVQEMKDHMVSPTAVAFLERNNREILAGKPAAQKSPSDLLDASAVSATSRYIEEQQATQQLIMDEQDQQLEMVSGSIQVLKHMSGRVGEELDEQGIMLDAFAQEMDHTQSRMDGVLRKLAKVSHMTSDRRQWCAIAVLVGVLLLVLILLFSL [P6A], the “effect of a mutation on the interaction” value is “disrupting interaction strength”. As for MSLEDPFFVVRGEVQKAVNTARGLYQRWCELLQESAAVGREELDWTTNELRNGLRSIEWDLEDLEETIGIVEANPGKFKLPAGDLQEMKVFVERMREAVQEMKDHMVSPTAVAFLERNNREILAGKPAAQKSPSDLLDASAVSATSRYIEEQQATQQLIMDEQDQQLEMVSGSIQVLKHMSGRVGEELDEQGIMLDAFAQEMDHTQSRMDGVLRKLAKVSHMTSDRRQWCAIAVLVGVLLLVLILLFSL [R88M], the “effect of a mutation on the interaction” value is on record as “disrupting interaction strength”.
